Source: publication doi:10.1101/2023.05.02.539095 (bioRxiv, 2023)

Key:
[1] = target: 0317ΔNH (MSMEG_0317 lacking the N-terminal TM helix) (M. smegmatis); assay: SEC-MALS
[2] = target: 0317ΔCD (MSMEG_0317 lacking the C-terminal cytoplasmic domain) (M. smegmatis); assay: SEC-MALS

“0317ΔNH (MSMEG_0317 lacking the N-terminal TM helix) (domain or fragment)” was tested, and the stoichiometry N [1] was 2.

Substance “0317ΔCD (MSMEG_0317 lacking the C-terminal cytoplasmic domain) (domain or fragment)” has a stoichiometry N [2] of 2.
